B1: F1.120.16 (antibody, human IgG1, kappa, V domains shown)
VH: EFQLQQSGPELVKPGASVKISCKASGYSFTDYNMNWVKQSNGKSLEWIGLIHPKFSVTSYNRKFKGKATLTVDQSSSTAYMQLNSLTSEDSAVYYCARWAGDYFDYWGQGTTLTVSS
VL: DIVLTQSPATLSVTPGDSVSLSCRASQSISNNLHWYQQKSHESPRLLIKYASQSISGIPSRFSGSGSGTDFTLTINSVETEDFGMYFCQQSNSWPQTFGGGTKLEIKR
notes: human-murine chimeric antibody
B2: F1.115.8 (antibody, human IgG1, kappa, V domains shown)
VH: EVQLQQSGPELVKPGASVKMSCKASGYTFTEYYMHWVKQSHGKSLEWIGYIYPNNGGNGYNQKFKGKATLTVDKSSSTAYMGLRSLTSEDSAVYYCVRGYYSNWYFDVWGTGTTVTVSS
VL: DVLMTQTPLSLPVSLGDQASISCRSSQSIVHSNGKTYLEWYLQKPGQSPKLLIYKVSNRFSGVPDRFSGSGSGTDFTLKISRVEAEDLGVYYCFQGSHVPFTFGSGTKLEIKR
notes: as for B1
B3: F1.118.4 (antibody, human IgG1, kappa, V domains shown)
VH: QVQLQQSGAELAKPGASVKLSCKASGYSFTSYWIHWVKQRPGQGLEWIGYINPSSGYTKYNQKFKDKATLTADKSSSTAYMQLSSLTYEDSAVYYCARFGSSSFYFDYWGQGTTLTVSS
VL: DIVLTQSPASLAVSLGQRATISCRASQSVSSSSYSYMHWYQQKPGQPPKLLIKYASNLDSGVPARFSGSGSGTDFTLNIHPVEEEDTATYYCQHSWEIPAFGGGTKLEIKR
notes: as for B1
B4: F1.136.7 (antibody, human IgG1, kappa, V domains shown)
VH: EVQLQQSGPVMVKPGPSVKISCQTSGFTFTDYYIHWVKQSHGKSLEWIGLVFPYDGGTNYNQKFKDKATLTLDTSSSTAYMELNSLTSEDSAVYYCARAGGFSYALNYWGQGTSVTVSS
VL: DIQMTQSPSSLSASLGGKVTITCKASQDINNYIAWYQHKPGKGPRLLIHFTSTLQPGIPSRFSGSGSGRDYSFSISNLEPEDIATYYCLQYDNLLLTFGAGTKLELKR
notes: as for B1
B5: F1.110.24 (antibody, human IgG1, kappa, V domains shown)
VH: EVKLVESGGGLVQPGGSLKLSCAASGFTFSDFYMYWVRQTPEKRLEWVAFISNGGGSTYYPDTVKGRFTISRDNVKNTLYLQMSRLKSEDTAMYYCARPDTSWFAYWGQGSLVTVSA
VL: DIQMTQTTSSLSASLGDRVTISCRASQDIDNYLNWYQQKPDGTVKVLISYTSRLHSGVPSRFSGSGSGTDYSLTISNLEQEDIATYFCQQGNTLPWTFGGGTKLEIKR
notes: as for B1

Consider five molecules from US20260116991A1 (HAINAN SIMCERE ZAIMING PHARMACEUTICAL, published 2026).

One assay concerns the target T1, polypeptide GC3pep (human).
T1 construct: also called membrane proximal polypeptide GC3pep
T1 peptide: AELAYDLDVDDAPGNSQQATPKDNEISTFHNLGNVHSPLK
Kind of assay: ELISA, GC3pep coated, antibody 100 nM.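 Also: detection with an HRP-conjugated secondary antibody and TMB substrate, color reaction stopped with HCl before absorbance reading.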 A general note: In an ELISA, binding on a coated surface is turned into a signal by an enzyme label.
Description: (§1) The plate was sealed with a plastic film and incubated at 4° C. overnight, washed twice with PBS the next day, and a blocking solution [PBS+2% (w/w) BSA] was added for blocking at room temperature for 2 h. […] After incubation at 37° C. for 2 h, the plate was washed 3 times with PBS. A horseradish peroxidase (HRP)-labeled secondary antibody (purchased from Merck, Cat. No. AP113P) was added for incubation at 37° C. for 1 h, and the plate was washed 5 times with PBS. A TMB substrate was added at 50 μL/well for incubation at room temperature for 10 min, then a stop solution (1.0M HCl) was added at 50 μL/well.
On to B1, for which the OD450 nm is 0.08 OD450 nm.
Molecule B2 displayed an OD450 nm of 0.1 OD450 nm.
Molecule B3 registered an OD450 nm of 0.06 OD450 nm.
On the same count and under the same terms, with B4 the figure was 0.08 OD450 nm; with B5, 0.06 OD450 nm.

The next assay deals with T1, polypeptide GC3pep. Briefly: ELISA, GC3pep coated, antibody 0.1 nM.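 Also: antibody allowed to bind the coated plate 2 h at 37 °C, then detected via HRP-conjugated secondary antibody and TMB development for 10 min, stopped with HCl.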
Description: as §1
As for B1, the OD450 nm was 0.04 OD450 nm.
Turning to B2, the OD450 nm amounted to 0.05 OD450 nm.
Consider B3, for which the OD450 nm turned out to be 0.04 OD450 nm.
The molecule B4 gave an OD450 nm of 0.04 OD450 nm.
Regarding B5, the OD450 nm is 0.05 OD450 nm.

A further assay has as its target T1, polypeptide GC3pep. Briefly: ELISA, GC3pep coated, antibody 0.001 nM.
Consider B1, for which the OD450 nm turned out to be 0.04 OD450 nm.
Molecule B2 came in with an OD450 nm of 0.05 OD450 nm.
For B3, the OD450 nm is 0.04 OD450 nm.
Same read-out and setting: to B4 belongs 0.04 OD450 nm; to B5, 0.05 OD450 nm.

Another assay concerns the target T1, polypeptide GC3pep. Briefly: ELISA, GC3pep coated, antibody 0.0001 nM.
The molecule B1 returned an OD450 nm of 0.05 OD450 nm.
As to B2, the OD450 nm was determined as 0.05 OD450 nm.
B3 displayed an OD450 nm of 0.05 OD450 nm.
As for B4, the OD450 nm is 0.05 OD450 nm.
Same read-out and setting: with B5 the figure was 0.04 OD450 nm.

A further assay has as its target T1, polypeptide GC3pep. Briefly: ELISA, GC3pep coated, antibody 10 nM.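 Also: antibody bound to the coated peptide for 2 h at 37 °C, detected through an HRP-conjugated secondary antibody with TMB colour development stopped by acid.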
Description: as §1
Molecule B1 showed an OD450 nm of 0.06 OD450 nm.
Same read-out and setting: with B2 the figure was 0.05 OD450 nm; with B3, 0.05 OD450 nm.
For B4, the OD450 nm is 0.04 OD450 nm.
On the same count and under the same terms, with B5 the figure was 0.07 OD450 nm.

For a further assay, the target named is T1, polypeptide GC3pep. Kind of assay: ELISA, GC3pep coated, antibody 0.01 nM.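 Also: bound antibody detected with an HRP-conjugated secondary antibody and TMB substrate, color reaction stopped with HCl before reading absorbance.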
Description: as §1
For B1, the OD450 nm is 0.04 OD450 nm.
B2 showed an OD450 nm of 0.04 OD450 nm.
B3 came in with an OD450 nm of 0.04 OD450 nm.
On the same count and under the same terms, with B4 the figure was 0.04 OD450 nm.
Consider B5, for which the OD450 nm came to 0.05 OD450 nm.

For a further assay, the target named is T1, polypeptide GC3pep. Briefly: ELISA, GC3pep coated, antibody 1 nM.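 Also: bound antibody detected with an HRP-conjugated secondary antibody and TMB substrate, reaction stopped with HCl, after 2 h binding at 37 °C.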
Description: as §1
B1 gave an OD450 nm of 0.04 OD450 nm.
Molecule B2 showed an OD450 nm of 0.08 OD450 nm.
Molecule B3 returned an OD450 nm of 0.04 OD450 nm.
The molecule B4 had an OD450 nm of 0.04 OD450 nm.
B5 displayed an OD450 nm of 0.04 OD450 nm.
